Assay results published in US20260001928A1 (CORTERIA PHARMACEUTICALS, priority 2022, published 2026).
Blank lines part the entries; values can stand above or below the binder they belong to. *1 amine or outer side, *2 acyl side, *3 side chain or, on linkers, in order; H or OH if unused. Where no end group is shown, it is not given here. Side-chain parts run from the residue outwards. [ ]: non-standard residue; d: D form. The star is where a group is joined. C18 diacid = O=C(O)CCCCCCCCCCCCCCCCC(=O)*; C16 diacid = O=C(O)CCCCCCCCCCCCCCC(=O)*; γGlu = O=C(O)[C@H](CCC(=O)[*:2])N[*:1]; NMeI = CC[C@H](C)[C@H](NC)C(=O)O; Ac3c = NC1(C(=O)O)CC1; Aib = CC(C)(N)C(=O)O

Assays:
[1] = target: human corticotropin-releasing factor 2a (CRF2a receptor) (human), Q13324; assay: cell-based or functional assay
[2] = target: T1, CRF1R receptor (UniProt P34998 24-415, limits assumed); assay: cell-based or functional assay
T1 sequence (looked up): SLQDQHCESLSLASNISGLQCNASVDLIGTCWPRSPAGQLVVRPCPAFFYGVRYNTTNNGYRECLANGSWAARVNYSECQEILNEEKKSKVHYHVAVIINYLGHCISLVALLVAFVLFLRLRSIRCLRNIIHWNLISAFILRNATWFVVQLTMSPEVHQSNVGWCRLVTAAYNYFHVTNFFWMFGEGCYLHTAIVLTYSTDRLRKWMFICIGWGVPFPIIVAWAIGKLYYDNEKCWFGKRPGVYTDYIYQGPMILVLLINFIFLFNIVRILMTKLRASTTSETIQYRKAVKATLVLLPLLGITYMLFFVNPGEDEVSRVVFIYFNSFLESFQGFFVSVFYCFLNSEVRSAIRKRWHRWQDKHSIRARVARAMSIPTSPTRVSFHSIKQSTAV

Sequence of human corticotropin-releasing factor 2a (CRF2a receptor) (human), Q13324 (Q13324 20-411): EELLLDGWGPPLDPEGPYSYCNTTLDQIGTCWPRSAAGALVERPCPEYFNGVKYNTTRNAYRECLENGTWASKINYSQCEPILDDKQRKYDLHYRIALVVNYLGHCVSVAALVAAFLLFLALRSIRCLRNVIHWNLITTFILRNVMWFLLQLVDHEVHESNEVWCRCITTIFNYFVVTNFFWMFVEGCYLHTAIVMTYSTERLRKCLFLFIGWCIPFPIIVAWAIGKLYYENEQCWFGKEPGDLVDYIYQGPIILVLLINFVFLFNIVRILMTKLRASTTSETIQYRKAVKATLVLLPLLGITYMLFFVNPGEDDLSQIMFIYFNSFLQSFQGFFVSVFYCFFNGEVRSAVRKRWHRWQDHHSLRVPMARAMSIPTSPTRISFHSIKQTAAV

EC50 [nM] (cAMP) [1]: 0.16 nM
Emax (% I) [2]: 5%
B1: SEQ ID NO 136 (peptide)
peptide: Ac-IVLSLD[dV]PIKLK([γGlu-C18 diacid])KILLEQEKQKKQREQAETN[Ac3c]QILAQV-NH2
SMILES: CC[C@H](C)[C@H](NC(C)=O)C(=O)N[C@H](C(=O)N[C@@H](CC(C)C)C(=O)N[C@@H](CO)C(=O)N[C@@H](CC(C)C)C(=O)N[C@@H](CC(=O)O)C(=O)N[C@@H](C(=O)N1CCC[C@H]1C(=O)N[C@H](C(=O)N[C@@H](CCCCN)C(=O)N[C@@H](CC(C)C)C(=O)N[C@@H](CCCCNC(=O)CC[C@H](NC(=O)CCCCCCCCCCCCCCCCC(=O)O)C(=O)O)C(=O)N[C@@H](CCCCN)C(=O)N[C@H](C(=O)N[C@@H](CC(C)C)C(=O)N[C@@H](CC(C)C)C(=O)N[C@@H](CCC(=O)O)C(=O)N[C@@H](CCC(N)=O)C(=O)N[C@@H](CCC(=O)O)C(=O)N[C@@H](CCCCN)C(=O)N[C@@H](CCC(N)=O)C(=O)N[C@@H](CCCCN)C(=O)N[C@@H](CCCCN)C(=O)N[C@@H](CCC(N)=O)C(=O)N[C@@H](CCCNC(=N)N)C(=O)N[C@@H](CCC(=O)O)C(=O)N[C@@H](CCC(N)=O)C(=O)N[C@@H](C)C(=O)N[C@@H](CCC(=O)O)C(=O)N[C@H](C(=O)N[C@@H](CC(N)=O)C(=O)NC1(C(=O)N[C@@H](CCC(N)=O)C(=O)N[C@H](C(=O)N[C@@H](CC(C)C)C(=O)N[C@@H](C)C(=O)N[C@@H](CCC(N)=O)C(=O)N[C@H](C(N)=O)C(C)C)[C@@H](C)CC)CC1)[C@@H](C)O)[C@@H](C)CC)[C@@H](C)CC)C(C)C)C(C)C

EC50 [nM] (cAMP) [1]: 0.15 nM
Emax (% I) [2]: 7%
B2: SEQ ID NO 74 (peptide)
peptide: [NMeI]VLSLD[dV]PIKLK([γGlu-C16 diacid])KILLEQEKQKAQREQAETN[Aib]QILAQV-NH2
modifications: N-terminus assumed
SMILES: CC[C@H](C)[C@H](NC)C(=O)N[C@H](C(=O)N[C@@H](CC(C)C)C(=O)N[C@@H](CO)C(=O)N[C@@H](CC(C)C)C(=O)N[C@@H](CC(=O)O)C(=O)N[C@@H](C(=O)N1CCC[C@H]1C(=O)N[C@H](C(=O)N[C@@H](CCCCN)C(=O)N[C@@H](CC(C)C)C(=O)N[C@@H](CCCCNC(=O)CC[C@H](NC(=O)CCCCCCCCCCCCCCC(=O)O)C(=O)O)C(=O)N[C@@H](CCCCN)C(=O)N[C@H](C(=O)N[C@@H](CC(C)C)C(=O)N[C@@H](CC(C)C)C(=O)N[C@@H](CCC(=O)O)C(=O)N[C@@H](CCC(N)=O)C(=O)N[C@@H](CCC(=O)O)C(=O)N[C@@H](CCCCN)C(=O)N[C@@H](CCC(N)=O)C(=O)N[C@@H](CCCCN)C(=O)N[C@@H](C)C(=O)N[C@@H](CCC(N)=O)C(=O)N[C@@H](CCCNC(=N)N)C(=O)N[C@@H](CCC(=O)O)C(=O)N[C@@H](CCC(N)=O)C(=O)N[C@@H](C)C(=O)N[C@@H](CCC(=O)O)C(=O)N[C@H](C(=O)N[C@@H](CC(N)=O)C(=O)NC(C)(C)C(=O)N[C@@H](CCC(N)=O)C(=O)N[C@H](C(=O)N[C@@H](CC(C)C)C(=O)N[C@@H](C)C(=O)N[C@@H](CCC(N)=O)C(=O)N[C@H](C(N)=O)C(C)C)[C@@H](C)CC)[C@@H](C)O)[C@@H](C)CC)[C@@H](C)CC)C(C)C)C(C)C

EC50 [nM] (cAMP) [1]: 0.36 nM
Emax (% I) [2]: 3%
B3: SEQ ID NO 61 (peptide)
peptide: Ac-IVLSLD[dV]PIKLK([γGlu-C16 diacid])KILLEQEKQKKQREQAETN[Ac3c]QILAQV-NH2
SMILES: CC[C@H](C)[C@H](NC(C)=O)C(=O)N[C@H](C(=O)N[C@@H](CC(C)C)C(=O)N[C@@H](CO)C(=O)N[C@@H](CC(C)C)C(=O)N[C@@H](CC(=O)O)C(=O)N[C@@H](C(=O)N1CCC[C@H]1C(=O)N[C@H](C(=O)N[C@@H](CCCCN)C(=O)N[C@@H](CC(C)C)C(=O)N[C@@H](CCCCNC(=O)CC[C@H](NC(=O)CCCCCCCCCCCCCCC(=O)O)C(=O)O)C(=O)N[C@@H](CCCCN)C(=O)N[C@H](C(=O)N[C@@H](CC(C)C)C(=O)N[C@@H](CC(C)C)C(=O)N[C@@H](CCC(=O)O)C(=O)N[C@@H](CCC(N)=O)C(=O)N[C@@H](CCC(=O)O)C(=O)N[C@@H](CCCCN)C(=O)N[C@@H](CCC(N)=O)C(=O)N[C@@H](CCCCN)C(=O)N[C@@H](CCCCN)C(=O)N[C@@H](CCC(N)=O)C(=O)N[C@@H](CCCNC(=N)N)C(=O)N[C@@H](CCC(=O)O)C(=O)N[C@@H](CCC(N)=O)C(=O)N[C@@H](C)C(=O)N[C@@H](CCC(=O)O)C(=O)N[C@H](C(=O)N[C@@H](CC(N)=O)C(=O)NC1(C(=O)N[C@@H](CCC(N)=O)C(=O)N[C@H](C(=O)N[C@@H](CC(C)C)C(=O)N[C@@H](C)C(=O)N[C@@H](CCC(N)=O)C(=O)N[C@H](C(N)=O)C(C)C)[C@@H](C)CC)CC1)[C@@H](C)O)[C@@H](C)CC)[C@@H](C)CC)C(C)C)C(C)C

EC50 [nM] (cAMP) [1]: 0.19 nM
Emax (% I) [2]: 3%
B4: SEQ ID NO 75 (peptide)
peptide: [NMeI]VLSLD[dV]PIKLK([γGlu-C16 diacid])KILLEQEKQK[Aib]QREQAETN[Aib]QILAQV-NH2
modifications: N-terminus assumed
SMILES: CC[C@H](C)[C@H](NC)C(=O)N[C@H](C(=O)N[C@@H](CC(C)C)C(=O)N[C@@H](CO)C(=O)N[C@@H](CC(C)C)C(=O)N[C@@H](CC(=O)O)C(=O)N[C@@H](C(=O)N1CCC[C@H]1C(=O)N[C@H](C(=O)N[C@@H](CCCCN)C(=O)N[C@@H](CC(C)C)C(=O)N[C@@H](CCCCNC(=O)CC[C@H](NC(=O)CCCCCCCCCCCCCCC(=O)O)C(=O)O)C(=O)N[C@@H](CCCCN)C(=O)N[C@H](C(=O)N[C@@H](CC(C)C)C(=O)N[C@@H](CC(C)C)C(=O)N[C@@H](CCC(=O)O)C(=O)N[C@@H](CCC(N)=O)C(=O)N[C@@H](CCC(=O)O)C(=O)N[C@@H](CCCCN)C(=O)N[C@@H](CCC(N)=O)C(=O)N[C@@H](CCCCN)C(=O)NC(C)(C)C(=O)N[C@@H](CCC(N)=O)C(=O)N[C@@H](CCCNC(=N)N)C(=O)N[C@@H](CCC(=O)O)C(=O)N[C@@H](CCC(N)=O)C(=O)N[C@@H](C)C(=O)N[C@@H](CCC(=O)O)C(=O)N[C@H](C(=O)N[C@@H](CC(N)=O)C(=O)NC(C)(C)C(=O)N[C@@H](CCC(N)=O)C(=O)N[C@H](C(=O)N[C@@H](CC(C)C)C(=O)N[C@@H](C)C(=O)N[C@@H](CCC(N)=O)C(=O)N[C@H](C(N)=O)C(C)C)[C@@H](C)CC)[C@@H](C)O)[C@@H](C)CC)[C@@H](C)CC)C(C)C)C(C)C
